This is an account of results in PMC11079029, “Intramolecular autoinhibition regulates the selectivity of PRPF40A tandem WW domains for proline-rich motifs” (Nature Communications, 2024).

The chains are these.
B1: SF3A3 (protein, UniProt Q12874 1-501, looked up)
Splicing factor 3A subunit 3: METILEQQRRYHEEKERLMDVMAKEMLTKKSTLRDQINSDHRTRAMQDRYMEVSGNLRDLYDDKDGLRKEELNAISGPNEFAEFYNRLKQIKEFHRKHPNEICVPMSVEFEELLKARENPSEEAQNLVEFTDEEGYGRYLDLHDCYLKYINLKASEKLDYITYLSIFDQLFDIPKERKNAEYKRYLEMLLEYLQDYTDRVKPLQDQNELFGKIQAEFEKKWENGTFPGWPKETSSALTHAGAHLDLSAFSSWEELASLGLDRLKSALLALGLKCGGTLEERAQRLFSTKGKSLESLDTSLFAKNPKSKGTKRDTERNKDIAFLEAQIYEYVEILGEQRHLTHENVQRKQARTGEEREEEEEEQISESESEDEENEIIYNPKNLPLGWDGKPIPYWLYKLHGLNINYNCEICGNYTYRGPKAFQRHFAEWRHAHGMRCLGIPNTAHFANVTQIEDAVSLWAKLKLQKASERWQPDTEEEYEDSSGNVVNKKTYEDLKRQGLL
B2: SF3A2 (protein, UniProt Q15428 1-464, looked up)
Splicing factor 3A subunit 2: MDFQHRPGGKTGSGGVASSSESNRDRRERLRQLALETIDINKDPYFMKNHLGSYECKLCLTLHNNEGSYLAHTQGKKHQTNLARRAAKEAKEAPAQPAPEKVKVEVKKFVKIGRPGYKVTKQRDSEMGQQSLLFQIDYPEIAEGIMPRHRFMSAYEQRIEPPDRRWQYLLMAAEPYETIAFKVPSREIDKAEGKFWTHWNRETKQFFLQFHFKMEKPPAPPSLPAGPPGVKRPPPPLMNGLPPRPPLPESLPPPPPGGLPLPPMPPTGPAPSGPPGPPQLPPPAPGVHPPAPVVHPPASGVHPPAPGVHPPAPGVHPPAPGVHPPTSGVHPPAPGVHPPAPGVHPPAPGVHPPAPGVHPPAPGVHPPPSAGVHPQAPGVHPAAPAVHPQAPGVHPPAPGMHPQAPGVHPQPPGVHPSAPGVHPQPPGVHPSNPGVHPPTPMPPMLRPPLPSEGPGNIPPPPPTN
B3: DIAPH2 (protein, UniProt O60879 1-1101, looked up)
Protein diaphanous homolog 2: MEQPGAAASGAGGGSEEPGGGRSNKRSAGNRAANEEETKNKPKLNIQIKTLADDVRDRITSFRKSTVKKEKPLIQHPIDSQVAMSEFPAAQPLYDERSLNLSEKEVLDLFEKMMEDMNLNEEKKAPLRNKDFTTKREMVVQYISATAKSGGLKNSKHECTLSSQEYVHELRSGISDEKLLNCLESLRVSLTSNPVSWVNNFGHEGLGLLLDELEKLLDKKQQENIDKKNQYKLIQCLKAFMNNKFGLQRILGDERSLLLLARAIDPKQPNMMTEIVKILSAICIVGEENILDKLLGAITTAAERNNRERFSPIVEGLENQEALQLQVACMQFINALVTSPYELDFRIHLRNEFLRSGLKTMLPDLKEKENDELDIQLKVFDENKEDDLTELSHRLNDIRAEMDDMNEVYHLLYNMLKDTAAENYFLSILQHFLLIRNDYYIRPQYYKIIEECVSQIVLHCSGMDPDFKYRQRLDIDLTHLIDSCVNKAKVEESEQKAAEFSKKFDEEFTARQEAQAELQKRDEKIKELEAEIQQLRTQAQVLSSSSGIPGPPAAPPLPGVGPPPPPPAPPLPGGAPLPPPPPPLPGMMGIPPPPPPPLLFGGPPPPPPLGGVPPPPGISLNLPYGMKQKKMYKPEVSMKRINWSKIEPTELSENCFWLRVKEDKFENPDLFAKLALNFATQIKVQKNAEALEEKKTGPTKKKVKELRILDPKTAQNLSIFLGSYRMPYEDIRNVILEVNEDMLSEALIQNLVKHLPEQKILNELAELKNEYDDLCEPEQFGVVMSSVKMLQPRLSSILFKLTFEEHINNIKPSIIAVTLACEELKKSESFNRLLELVLLVGNYMNSGSRNAQSLGFKINFLCKIRDTKSADQKTTLLHFIADICEEKYRDILKFPEELEHVESASKVSAQILKSNLASMEQQIVHLERDIKKFPQAENQHDKFVEKMTSFTKTAREQYEKLSTMHNNMMKLYENLGEYFIFDSKTVSIEEFFGDLNNFRTLFLEAVRENNKRREMEEKTRRAKLAKEKAEQEKLERQKKKKQLIDINKEGDETGVMDNLLEALQSGAAFRDRRKRIPRNPDNRRVPLERSRSRHNGAISSK
B4: MTREX (protein, UniProt P42285 2-1042, looked up)
Exosome RNA helicase MTR4: ADAFGDELFSVFEGDSTTAAGTKKDKEKDKGKWKGPPGSADKAGKRFDGKLQSESTNNGKNKRDVDFEGTDEPIFGKKPRIEESITEDLSLADLMPRVKVQSVETVEGCTHEVALPAEEDYLPLKPRVGKAAKEYPFILDAFQREAIQCVDNNQSVLVSAHTSAGKTVCAEYAIALALREKQRVIFTSPIKALSNQKYREMYEEFQDVGLMTGDVTINPTASCLVMTTEILRSMLYRGSEVMREVAWVIFDEIHYMRDSERGVVWEETIILLPDNVHYVFLSATIPNARQFAEWICHLHKQPCHVIYTDYRPTPLQHYIFPAGGDGLHLVVDENGDFREDNFNTAMQVLRDAGDLAKGDQKGRKGGTKGPSNVFKIVKMIMERNFQPVIIFSFSKKDCEAYALQMTKLDFNTDEEKKMVEEVFSNAIDCLSDEDKKLPQVEHVLPLLKRGIGIHHGGLLPILKETIEILFSEGLIKALFATETFAMGINMPARTVLFTNARKFDGKDFRWISSGEYIQMSGRAGRRGMDDRGIVILMVDEKMSPTIGKQLLKGSADPLNSAFHLTYNMVLNLLRVEEINPEYMLEKSFYQFQHYRAIPGVVEKVKNSEEQYNKIVIPNEESVVIYYKIRQQLAKLGKEIEEYIHKPKYCLPFLQPGRLVKVKNEGDDFGWGVVVNFSKKSNVKPNSGELDPLYVVEVLLRCSKESLKNSATEAAKPAKPDEKGEMQVVPVLVHLLSAISSVRLYIPKDLRPVDNRQSVLKSIQEVQKRFPDGIPLLDPIDDMGIQDQGLKKVIQKVEAFEHRMYSHPLHNDPNLETVYTLCEKKAQIAIDIKSAKRELKKARTVLQMDELKCRKRVLRRLGFATSSDVIEMKGRVACEISSADELLLTEMMFNGLFNDLSAEQATALLSCFVFQENSSEMPKLTEQLAGPLRQMQECAKRIAKVSAEAKLEIDEETYLSSFKPHLMDVVYTWATGATFAHICKMTDVFEGSIIRCMRRLEELLRQMCQAAKAIGNTELENKFAEGITKIKRDIVFAASLYL
B5: SF3A1 (protein, UniProt Q15459 2-793, looked up)
Splicing factor 3A subunit 1: PAGPVQAVPPPPPVPTEPKQPTEEEASSKEDSAPSKPVVGIIYPPPEVRNIVDKTASFVARNGPEFEARIRQNEINNPKFNFLNPNDPYHAYYRHKVSEFKEGKAQEPSAAIPKVMQQQQQTTQQQLPQKVQAQVIQETIVPKEPPPEFEFIADPPSISAFDLDVVKLTAQFVARNGRQFLTQLMQKEQRNYQFDFLRPQHSLFNYFTKLVEQYTKILIPPKGLFSKLKKEAENPREVLDQVCYRVEWAKFQERERKKEEEEKEKERVAYAQIDWHDFVVVETVDFQPNEQGNFPPPTTPEELGARILIQERYEKFGESEEVEMEVESDEEDDKQEKAEEPPSQLDQDTQVQDMDEGSDDEEEGQKVPPPPETPMPPPLPPTPDQVIVRKDYDPKASKPLPPAPAPDEYLVSPITGEKIPASKMQEHMRIGLLDPRWLEQRDRSIREKQSDDEVYAPGLDIESSLKQLAERRTDIFGVEETAIGKKIGEEEIQKPEEKVTWDGHSGSMARTQQAAQANITLQEQIEAIHKAKGLVPEDDTKEKIGPSKPNEIPQQPPPPSSATNIPSSAPPITSVPRPPTMPPPVRTTVVSAVPVMPRPPMASVVRLPPGSVIAPMPPIIHAPRINVVPMPPSAPPIMAPRPPPMIVPTAFVPAPPVAPVPAPAPMPPVHPPPPMEDEPTSKKLKTEDSLMPEEEFLRRNKGPVSIKVQVPNMQDKTEWKLNGQVLVFTLPLTDQVSVIKVKIHEATGMPAGKQKLQYEGIFIKDSNSLAYYNMANGAVIHLALKERGGRKK

The test system of this experiment is GFP-tagged PRPF40A-Nter-MUT. Put plainly: SILAC GFP-immunoprecipitation with quantitative mass spectrometry, mutant construct. The settings on record: quantitative MS, Hela cells, protein by gene name. The class given is binding, human (Hela cells). Here is the method:
The PRPF40A N-terminal region (isoform 2, residues 1-221) was PCR-amplified from RPE1 cDNA (ATCC, Cat# CRL-4000) cDNA. The sequence was amplified in two fragments and both fragments were combined by overhang. All PCRs were carried out using Q5 Polymerase (NEB) according to manufacturer’s protocol. The resulting PRPF40A N-terminal region was cloned into a GFP-expressing pcDNA5 vector (see pcDNA5 GFP vector in ref. [28]) using Q5 Site-Directed Mutagenesis Kit (NEB). Nter-MUT, containing the PPVP/PALPP motifs changed to AAAA/AAAAA, was obtained by mutating the N-ter-WW12-containing plasmid with Q5 site-directed mutagenesis. Plasmids were transformed into DH5alpha chemically competent cells. After culturing, DNA isolation was performed with either ZymoPURE Plasmid Miniprep Kit (Zymo Research) or QIAGEN Plasmid Plus Midi Kit (Qiagen). The sequence was confirmed by Sanger Sequencing (GATC Eurofins). All used oligonucleotides are shown in Supplementary Table 6.
Hela cells (ATCC, Cat# CCL-2, RRID:CVCL_0030) were cultured in DMEM SILAC medium (Thermo Fisher) supplemented with 10% filtered FBS (Sigma-Aldrich) and 1% penicillin-streptomycin (Thermo-Fisher). The SILAC medium contains either light (Arg0, Lys0), medium (Arg6, Lys4) or heavy (Arg10, Lys8) isotopes (Cambridge Isotopes Laboratories). Hela cells were cultivated for 14 days in SILAC medium to assure sufficient isotope incorporation. For transfection, 7 × 10^6 Hela cells were seeded in a 15 cm culture dish in 20 ml of respective SILAC medium and grown for 24 h. The cells were then transfected with 20 µg of plasmids expressing either GFP (Control), GFP-tagged N-ext-WW12 or GFP-tagged-N-ext-WW12-MUT utilizing 64 µl FuGENE (Promega) (ratio 1:3.2), according to manufacturer’s protocol.
24 h post-transfection, cells were washed twice in ice-cold PBS and harvested in 1 ml mRIPA buffer (50 mM Tris, 150 mM NaCl, 1 mM EDTA, 1% NP-40, 0.1% Na-deoxycholate), supplemented with 2 µl Turbo-DNase (Thermo Fisher) and 3 µl protease-inhibitor cocktail cOmplete (Sigma-Aldrich). Cell lysates were cleared by centrifugation at 16,000 × g, 4 °C, 15 min and concentration was measured using Pierce BCA Protein Assay kit (Thermo Scientific). The expressed constructs were pulled down by incubating 2.5 mg of lysate with 20 μl GFP-nanobody agarose beads (ChromoTek, GTA-20) for 1 h at 4 °C under constant agitation. Subsequently, beads were washed three times with mRIPA buffer without supplements, then eluted in 1X NuPAGE LDS sample buffer (Thermo Scientific). To detach the proteins from the beads, the eluate was heated to 70 °C for 10 min To evaluate the success of the immunoprecipitation, input (1%) and IP samples were analyzed on a NuPAGE 4–12% Bis-Tris-Acrylamide gel (Thermo Fisher) using NuPAGE MOPS SDS running buffer (Thermo Fisher). Proteins were stained using Sypro Ruby protein gel stain (Thermo Fisher) according to manufacturer’s protocol.
The eluted proteins of three SILAC states (light, medium, heavy) were combined. The proteins were then reduced in DTT, alkylated in iodoacetamide, and purified using the SP3 paramagnetic bead approach. This was followed by overnight enzymatic digestion using trypsin (1 µg per sample) in 50 mM ammonium bicarbonate at 37 °C. The peptide solution was then purified by solid phase extraction in C18 StageTips[99].
Peptides were separated by online reverse phase liquid chromatography using the EASY-nLC 1000 system (Thermo Scientific) in a 30-cm analytical column (inner diameter: 75 μm; heated at 50 °C) packed in-house with ReproSil-Pur 120 C18-AQ 1.9-μm beads (Dr. Maisch GmbH). The gradient separation was performed through a 105-min non-linear gradient of 1.6–32% acetonitrile with 0.1% formic acid at a nanoflow rate of 225 nl/min. The eluted peptides were sprayed directly by electrospray ionization into a Q Exactive Plus Orbitrap mass spectrometer (Thermo Scientific). […]
Take B1: the “Immunoprecipitation enrichment MUT vs WT, log2 FC” value is 1.179.
The figure for B2 is 1.275; for B3 it is 1.317; for B4 it is 1.198.
Regarding B5, the “Immunoprecipitation enrichment MUT vs WT, log2 FC” value came to 1.381.
